Source: paper PMC5504686 (Molecular genetics and metabolism, 2017)

Experiments:
[1] = target: the molecule itself; assay: crystal structure
[2] = target: T1, alpha subunit of mature G172D Flavobacterium glycosylasparaginase (Flavobacterium, UniProt Q47898 46-196); assay: crystal structure
T1 sequence (looked up): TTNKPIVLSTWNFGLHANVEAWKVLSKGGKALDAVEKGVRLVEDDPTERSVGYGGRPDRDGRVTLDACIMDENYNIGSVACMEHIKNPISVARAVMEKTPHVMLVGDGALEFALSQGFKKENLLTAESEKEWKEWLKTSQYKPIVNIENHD

B1: mature form of the G172D mutant of Flavobacterium glycosylasparaginase (one alpha and one beta chain) (complex)
chain 1: TTNKPIVLSTWNFGLHANVEAWKVLSKGGKALDAVEKGVRLVEDDPTERSVGYGGRPDRDGRVTLDACIMDENYNIGSVACMEHIKNPISVARAVMEKTPHVMLVGDGALEFALSQGFKKENLLTAESEKEWKEWLKTSQYKPIVNIENHD
chain 2: TIGMIALDAQGNLSGACTTSDMAYKMHGRVGDSPIIGAGLFVDNEIGAATATGHGEEVIRTVGTHLVVELMNQGRTPQQACKEAVERIVKIVNRRGKNLKDIQVGFIALNKKGEYGAYCIQDGFNFAVHDQKGNRLETPGFALK
B1: binds [1].

B2: beta subunit of mature G172D Flavobacterium glycosylasparaginase (domain or fragment, UniProt Q47898 197-340, looked up)
chain: TIGMIALDAQGNLSGACTTSDMAYKMHGRVGDSPIIGAGLFVDNEIGAATATGHGEEVIRTVGTHLVVELMNQGRTPQQACKEAVERIVKIVNRRGKNLKDIQVGFIALNKKGEYGAYCIQDGFNFAVHDQKGNRLETPGFALK
B2: binds [2].
